These results are taken from article PMC9563714.

This series concerns the target T1, Vfr (Pseudomonas aeruginosa UCBPP-PA14) (UniProt P55222).
T1 sequence: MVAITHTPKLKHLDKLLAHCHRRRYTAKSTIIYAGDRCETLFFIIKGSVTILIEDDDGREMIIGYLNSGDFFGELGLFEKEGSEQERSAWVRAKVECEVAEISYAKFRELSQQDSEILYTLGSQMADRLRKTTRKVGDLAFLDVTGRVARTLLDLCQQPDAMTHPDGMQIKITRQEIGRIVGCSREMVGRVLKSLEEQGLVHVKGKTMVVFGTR
Kind of series: EMSA. (In EMSA bound probe runs differently from free probe, usually more slowly.)

As to “TCTGACCCATCCGCGCGACTGGCCCCCGGGCCGGTCGCTCCCCCGGGACGACCGTCGGTCCCGGATCGGCGCGCTTTCCTGAACTATCGATCAGCTGTCACTGGCCGCCGCGCAAACGCTTGGTTAAGATTCCGCCAGCAACCTGGCCACCCGCCATTCCCCAGGCGGAAAGCTCACGAGGCCGAGCCGGGACGAAAATACACAGGGATCCTCTCCAGCGCATG (double strand) [PcyaB]”, the binding result is recorded as “no binding”.
